Experimental data taken from the Immune Epitope Database (IEDB).

Tests used:
Assay in all cases: IEDB peptide-MHC binding, purified MHC/competitive/radioactivity; filed as Kd, often an IC50 or EC50 that approximates it; ≥ and ≤ were set here for values at or beyond the usual limits of such assays
HLA-A*02:06 = biological target: HLA-A*02:06
HLA-A*02:02 = biological target: HLA-A*02:02
HLA-A*02:03 = biological target: HLA-A*02:03
[1] = source organism: Vaccinia virus WR
[2] = source organism: SARS coronavirus Tor2
[3] = source organism: Mammarenavirus brazilense

| Sequence | Kd (HLA-A*02:06; [1]) [µM] | Kd (HLA-A*02:02; [1]) [µM] | Kd (HLA-A*02:03; [1]) [µM] | other results |
| --- | --- | --- | --- | --- |
| CTINVNSLAL | 0.216 | 0.494 | 1.04 | – |
| MLPESDLDKV | 0.00442 | 0.00323 | 1.77 | – |
| KLLNMRDLI | 0.0438 | 0.496 | 0.329 | – |
| ALDGVLSTFV | – | – | – | Kd (HLA-A*02:06; [2]): 0.14 µM; Kd (HLA-A*02:02; [2]): 0.00326 µM; Kd (HLA-A*02:03; [2]): 0.0279 µM |
| GINNVQSLI | 1.73 | 0.474 | 0.378 | – |
| GLLEWIFRA | – | – | – | Kd (HLA-A*02:06; [3]): 0.00713 µM; Kd (HLA-A*02:02; [3]): 0.0219 µM; Kd (HLA-A*02:03; [3]): 0.225 µM |
| PASISSVLTI | 1.55 | 1.36 | 0.0833 | – |
| SLDQTHIKTI | 2.46 | 1.43 | 0.0146 | – |
| LVSDCASTI | 0.0613 | 0.0489 | 0.0172 | – |
| YMVTDKTAYI | 0.00612 | 0.000225 | 0.000277 | – |
| NTFVNFNSV | 0.000346 | 5.02 | 0.0996 | – |
| VAMLLTHGA | 0.726 | 7.16 | 0.628 | – |
| SMYTRLRQDT | ≥ 42.2 | 6.56 | 1.14 | – |
| NIPELKHGLL | 1.23 | 2.3 | 2.69 | – |
| SMWALVISV | – | – | – | Kd (HLA-A*02:06; [2]): 0.000793 µM; Kd (HLA-A*02:02; [2]): 0.00612 µM; Kd (HLA-A*02:03; [2]): 0.00443 µM |
| LISFFGLFDI | 0.171 | 0.0759 | 0.108 | – |
| VVHGYFTEV | – | – | – | Kd (HLA-A*02:06; [2]): 0.00263 µM; Kd (HLA-A*02:02; [2]): 0.0172 µM; Kd (HLA-A*02:03; [2]): 0.00327 µM |
| NAILHNIYRL | 0.576 | 5.61 | 10.2 | – |
| ETIQKDINIT | 0.112 | 0.354 | 0.0101 | – |
| ITHTNITTLL | 14.8 | 1.69 | 0.101 | – |
| ELIDVLKTRL | 1.99 | 0.262 | 0.118 | – |
| KIEDLINQLV | 0.145 | 0.087 | 0.0708 | – |
| LLFQLCTFT | – | – | – | Kd (HLA-A*02:06; [2]): 0.0111 µM; Kd (HLA-A*02:02; [2]): 0.0223 µM; Kd (HLA-A*02:03; [2]): 0.00377 µM |
| GLIAIVMVTI | – | – | – | Kd (HLA-A*02:06; [2]): 0.137 µM; Kd (HLA-A*02:02; [2]): 0.00763 µM; Kd (HLA-A*02:03; [2]): 0.0189 µM |

| Sequence | Kd (HLA-A*02:06; [1]) [µM] | Kd (HLA-A*02:02; [1]) [µM] | Kd (HLA-A*02:03; [1]) [µM] | other results |
| --- | --- | --- | --- | --- |
| RASTTENAA | 12.1 | ≥ 26.7 | ≥ 66.7 | – |
| ELTTVFIKYV | 0.463 | 2.79 | 0.719 | – |
| KILSDENYLL | 0.0156 | 0.0252 | 3.77 | – |
| FLDWIKDIM | 0.162 | 0.00078 | 0.297 | – |
| FAISYCRAFI | 0.0345 | 0.105 | 0.0383 | – |
| PTEMVDVSMM | 12.1 | 11.5 | ≥ 70.4 | – |
| TLNTLITLI | 0.941 | 0.000989 | 0.000596 | – |
| VVYHDDDNTT | 3.92 | 1.86 | 12.6 | – |
| ALVLLILMTA | – | – | – | Kd (HLA-A*02:06; [2]): 0.0614 µM; Kd (HLA-A*02:02; [2]): 0.0672 µM; Kd (HLA-A*02:03; [2]): 0.0507 µM |
| TIVSRSSRGV | 3.74 | 4.7 | 0.0111 | – |
| EAAAATCALV | 0.0601 | 1.81 | 0.248 | – |
| SLTQVKELGI | 0.157 | 0.00975 | 0.0754 | – |
| IMDKEQLLKI | 1.34 | 0.311 | 0.288 | – |
| LLPLTSLVI | 1.43 | 2.39 | 0.621 | – |
| LMDSIFVSTM | 0.61 | 0.00365 | 0.00815 | – |
| EIMDKEQLL | ≥ 26.5 | 0.183 | 0.427 | – |
| DTMRIYCSL | 2.92 | 5.84 | 5.46 | – |
| MMNERDVSV | 0.0639 | 0.000441 | 0.00027 | – |
| MLLNVQTLI | 0.000219 | 0.000169 | 0.00025 | – |
| TVDFTDCRTI | 10.6 | ≥ 31.8 | 10.4 | – |
| GIIITVGMLI | 1.13 | 3.58 | 0.595 | – |
| FVATFRDML | 0.487 | 2.35 | 0.206 | – |
| LLSAGIFGA | – | – | – | Kd (HLA-A*02:06; [2]): 0.0246 µM; Kd (HLA-A*02:02; [2]): 0.0123 µM; Kd (HLA-A*02:03; [2]): 0.0149 µM |
